From publication PMC4166353 come the findings set out here.

The target of test [1] is Complement component C4.
The target of test [2] is Fluorescence quenched C4 P4-P4' substrate, 2-aminobenzoate-GLQRALEI-Lys(Dinitrophenol)-NH2.

In test [1], “Recombinant human C1s K628A mutant, activated (from UniProt P09871 16-688) (enzyme)” gave an EC50 for cleavage of the C4 alpha chain (C4 1 uM, enzyme 0-5 nM, 1 h, 37 C, SDS-PAGE densitometry) of 0.77 nM. Also, in test [2], the kcat/K0.5 for cleavage of the fluorescence quenched C4 P4-P4' peptide (400 nM enzyme, 0.5-500 uM substrate, 37 C) turned out to be 110000 M⁻¹ s⁻¹.
“Recombinant human C1s K628Q mutant, activated (from UniProt P09871 16-688) (enzyme)” yielded an EC50 for cleavage of the C4 alpha chain (C4 1 uM, enzyme 0-5 nM, 1 h, 37 C, SDS-PAGE densitometry) in test [1] of 0.76 nM. Besides, in test [2], the kcat/K0.5 for cleavage of the fluorescence quenched C4 P4-P4' peptide (400 nM enzyme, 0.5-500 uM substrate, 37 C) worked out at 95000 M⁻¹ s⁻¹.
Take “Recombinant human C1s, wild type, activated (from UniProt P09871 16-688) (enzyme)”: the EC50 for cleavage of the C4 alpha chain (C4 1 uM, enzyme 0-5 nM, 1 h, 37 C, SDS-PAGE densitometry) in test [1] amounted to 0.16 nM. Moreover, in test [2], the kcat/K0.5 for cleavage of the fluorescence quenched C4 P4-P4' peptide (400 nM enzyme, 0.5-500 uM substrate, 37 C) was found to be 82000 M⁻¹ s⁻¹.
